Data as given in patent US20040214255A1 (MYRIAD GENETICS, published 2004).

Tests used:
Test in all cases: yeast two-hybrid
[1] = molecular target: T1, Myosin Heavy Chain (Swiss Protein P13533), amino acids 1589-1909 (human, UniProt P13533 1589-1909)
T1 construct: range 1589-1909; also called cardiac muscle myosin heavy chain; MYSA
Excerpt: (§1) The new construct was selected directly in the yeast strain PNY200 for its ability to drive tryptophane synthesis (genotype of this strain: […] trp1-901 leu2-3,112 ura3-52 his3-200 ade2 gal4Δ gal80). In these yeast cells, the bait was produced as a C-terminal fusion protein with the DNA binding domain of the transcription factor Ga14 (amino acids 1 to 147). Prey libraries were transformed into the yeast strain BK100 (genotype of this strain: MATα trp1-901 leu2-3,112 ura3-52 his3-200 gal4Δ gal80 LYS2::GAL-HIS3 GAL2-ADE2 met2::GAL7-lacZ), and selected for the ability to drive leucine synthesis. In these yeast cells, each cDNA was expressed as a fusion protein with the transcription activation domain of the transcription factor Ga14 (amino acids 768 to 881) and a 9 amino acid hemagglutinin epitope tag. PNY200 cells (MATα mating type), expressing the bait, were then mated with BK100 cells (MATa mating type), expressing prey proteins from a prey library. The resulting diploid yeast cells expressing proteins interacting with the bait protein were selected for the ability to synthesize tryptophan, leucine, histidine, and adenine. DNA was prepared from each clone, transformed by electroporation into E. coli strain KC8 (Clontech KC8 electrocompetent cells, Catalog No. C2023-1), and the cells were selected on ampicillin-containing plates in the absence of either tryptophane (selection for the bait plasmid) or leucine (selection for the library plasmid). DNA for both plasmids was prepared and sequenced by the dideoxynucleotide chain termination method. The identity of the bait cDNA insert was confirmed and the cDNA insert from the prey library plasmid was identified using the BLAST program to search against public nucleotide and protein databases. Plasmids from the prey library were then individually transformed into yeast cells together with a plasmid driving the synthesis of lamin and 5 other test proteins, respectively, fused to the Ga14 DNA binding domain. Clones that gave a positive signal in the β-galactosidase assay were considered false-positives and discarded. […] Clones that gave a positive signal in the β-galactosidase assay were considered true positives.

[2] = molecular target: T2, Dynamin, amino acids 250-700 (human, UniProt Q05193 250-700)
T2 construct: range 250-700
T2 sequence (looked up): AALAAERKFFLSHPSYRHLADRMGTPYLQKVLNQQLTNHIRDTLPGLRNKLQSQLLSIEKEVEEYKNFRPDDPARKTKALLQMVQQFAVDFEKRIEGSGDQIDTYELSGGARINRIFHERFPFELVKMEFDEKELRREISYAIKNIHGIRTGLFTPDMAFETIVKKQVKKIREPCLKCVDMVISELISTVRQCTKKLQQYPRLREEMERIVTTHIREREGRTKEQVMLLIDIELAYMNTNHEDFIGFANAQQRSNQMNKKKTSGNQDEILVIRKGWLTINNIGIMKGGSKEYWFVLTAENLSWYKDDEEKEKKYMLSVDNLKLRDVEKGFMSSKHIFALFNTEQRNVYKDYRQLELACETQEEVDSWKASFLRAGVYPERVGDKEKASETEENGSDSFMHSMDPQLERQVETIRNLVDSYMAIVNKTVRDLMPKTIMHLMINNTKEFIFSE
Excerpt: as §1

[3] = molecular target: T3, Insulin-Regulated Membrane-Spanning Aminopeptidase (IRAP), amino acids 129-473 (human, UniProt Q9UIQ6 129-473)
T3 construct: range 129-473; also called vp165; gp160
Excerpt: as §1

[4] = molecular target: T4, BAP31, amino acids 111-247 (human, UniProt P51572 111-246)
T4 construct: range 111-247
T4 sequence (looked up): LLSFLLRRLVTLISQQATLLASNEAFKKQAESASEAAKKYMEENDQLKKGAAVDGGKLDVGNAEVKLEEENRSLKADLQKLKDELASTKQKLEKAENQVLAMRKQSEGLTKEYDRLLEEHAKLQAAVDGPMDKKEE
Excerpt: as §1

[5] = molecular target: T5, NuMA1, amino acids 185-361 (human, UniProt Q14980 185-361)
T5 construct: range 185-361; also called nuclear mitotic apparatus protein NuMA1
T5 sequence (looked up): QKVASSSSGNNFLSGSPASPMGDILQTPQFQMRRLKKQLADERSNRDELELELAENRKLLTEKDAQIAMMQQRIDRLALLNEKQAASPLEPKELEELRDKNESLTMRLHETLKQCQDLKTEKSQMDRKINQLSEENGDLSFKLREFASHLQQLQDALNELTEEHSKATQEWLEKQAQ
Excerpt: as §1

[6] = molecular target: T6, NuMA1, amino acids 98-365 (human, UniProt Q14980 98-365)
T6 construct: range 98-365; also called nuclear mitotic apparatus protein NuMA1
T6 sequence (looked up): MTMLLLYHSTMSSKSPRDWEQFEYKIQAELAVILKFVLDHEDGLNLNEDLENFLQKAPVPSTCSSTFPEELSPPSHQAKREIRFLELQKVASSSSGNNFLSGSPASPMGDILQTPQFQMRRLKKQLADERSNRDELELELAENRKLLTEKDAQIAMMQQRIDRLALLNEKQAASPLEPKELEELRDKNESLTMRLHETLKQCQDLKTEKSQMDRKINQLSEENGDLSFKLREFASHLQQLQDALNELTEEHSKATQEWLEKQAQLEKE
Excerpt: as §1

T1 sequence (P13533 1589-1909, one chain of several): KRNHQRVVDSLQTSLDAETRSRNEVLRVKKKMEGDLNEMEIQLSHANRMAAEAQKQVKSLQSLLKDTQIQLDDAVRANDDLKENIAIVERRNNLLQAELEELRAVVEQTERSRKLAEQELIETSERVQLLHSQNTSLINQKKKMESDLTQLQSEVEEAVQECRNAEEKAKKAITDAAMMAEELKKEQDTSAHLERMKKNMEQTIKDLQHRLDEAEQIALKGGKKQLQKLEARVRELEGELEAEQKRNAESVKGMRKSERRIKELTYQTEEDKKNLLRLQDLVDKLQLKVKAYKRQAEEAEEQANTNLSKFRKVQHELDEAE
T3 sequence (Q9UIQ6 129-473 limits assumed): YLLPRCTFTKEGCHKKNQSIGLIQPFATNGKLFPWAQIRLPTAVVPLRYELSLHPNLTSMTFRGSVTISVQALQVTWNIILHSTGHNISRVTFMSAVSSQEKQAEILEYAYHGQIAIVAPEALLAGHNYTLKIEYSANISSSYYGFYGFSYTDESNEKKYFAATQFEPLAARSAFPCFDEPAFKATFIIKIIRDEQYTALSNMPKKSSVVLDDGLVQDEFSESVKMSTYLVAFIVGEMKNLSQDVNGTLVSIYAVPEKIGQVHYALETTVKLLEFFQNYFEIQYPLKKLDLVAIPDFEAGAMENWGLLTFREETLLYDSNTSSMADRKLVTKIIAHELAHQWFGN

TYFKVPETKGRTFDEIASGFRQGGASQSDKTPEELFHPLGADSQV (other, human, UniProt P11166 448-492, looked up, range 448-493; also called GLUT1; Glut1) [Glucose Transporter 1, amino acids 448-493]: binds [1].

B1: Clathrin Assembly Protein (CALM), amino acids 267-484 (other, human, UniProt Q13492 267-484, looked up)
chain: LSQAPSSLLDALEQHLASLEGKKIKDSTAASRATTLSNAVSSLASTGLSLTKVDEREKQAALEEEQARLKALKEQRLKELAKKPHTSLTTAASPVSTSAGGIMTAPAIDIFSTPSSSNSTSKLPNDLLDLQQPTFHPSVHPMSTASQVASTWGDPFSATVDAVDDAIPSLNPFLTKSSGDVHLSISSDVSTFTTRTPTHEMFVGFTPSPVAQPHPSAG
notes: range 267-484
B1: binds [2].

B2: 14-3-3 Beta, amino acids 97-236 (other, human, UniProt P31946 97-236, looked up)
chain: NDVLELLDKYLIPNATQPESKVFYLKMKGDYFRYLSEVASGDNKQTTVSNSQQAYQEAFEISKKEMQPTHPIRLGLALNFSVFYYEILNSPEKACSLAKTAFDEAIAELDTLNEESYKDSTLIMQLLRDNLTLWTSENQG
notes: range 97-236
B2: binds [3].

B3: Akt kinase 2 (Akt2), amino acids 276-408 (enzyme, human, UniProt P31751 276-408, looked up)
chain: IKLENLMLDKDGHIKITDFGLCKEGISDGATMKTFCGTPEYLAPEVLEDNDYGRAVDWWGLGVVMYEMMCGRLPFYNQDHERLFELILMEEIRFPRTLSPEAKSLLAGLLKKDPKQRLGGGPSDAKEVMEHRF
notes: range 276-408
B3: binds [4].

B4: Akt kinase 1 (Akt1), amino acids 1-118 (enzyme, human, UniProt P31749 1-118, looked up)
chain: MSDVAIVKEGWLHKRGEYIKTWRPRYFLLKNDGTFIGYKERPQDVDQREAPLNNFSVAQCQLMKTERPRPNTFIIRCLQWTTVIERTFHVETPEEREEWTTAIQTVADGLKKQEEEEM
notes: range 1-118
B4: binds [5].

B5: Akt kinase 2 (Akt2), amino acids 1-152 (enzyme, human, UniProt P31751 1-152, looked up)
chain: MNEVSVIKEGWLHKRGEYIKTWRPRYFLLKSDGSFIGYKERPEAPDQTLPPLNNFSVAECQLMKTERPRPNTFVIRCLQWTTVIERTFHVDSPDEREEWMRAIQMVANSLKQRAPGEDPMDYKCGSPSDSSTTEEMEVAVSKARAKVTMNDF
notes: range 1-152
B5: binds [6].
